According to PMC10031210:
Like-named read-outs stand apart in the source and are kept apart here.

Experiments:
[1] = molecular target: unfolded transmembrane β-barrel of outer membrane protein A (uOmpA171) (E. coli) (UniProt P0A910); assay: AUC
Target sequence in this assay (P0A910 22-192): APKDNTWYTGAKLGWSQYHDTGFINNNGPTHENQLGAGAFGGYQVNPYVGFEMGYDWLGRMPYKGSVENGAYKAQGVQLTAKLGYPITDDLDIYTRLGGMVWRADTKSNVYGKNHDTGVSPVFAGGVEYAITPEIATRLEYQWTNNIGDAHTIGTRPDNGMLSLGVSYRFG

[2] = molecular target: unfolded transmembrane β-barrel of outer membrane protein A (uOmpA171) (E. coli) (UniProt P0A910); assay: AUC; remark: listed apart in the source
Target sequence in this assay (P0A910 22-192): as above

[3] = molecular target: unfolded transmembrane β-barrel of outer membrane protein A (uOmpA171) (E. coli) (UniProt P0A910); assay: AUC; remark: listed apart in the source
Target sequence in this assay (P0A910 22-192): as above

[4] = molecular target: FkpA (full-length, dimeric form) (E. coli) (UniProt P45523); assay: AUC
[5] = molecular target: unfolded transmembrane β-barrel of outer membrane protein A (uOmpA171) (E. coli) (UniProt P0A910); assay: AUC; remark: listed apart in the source
Target sequence in this assay (P0A910 22-192): as above

[6] = molecular target: unfolded transmembrane β-barrel of outer membrane protein A (uOmpA171) (E. coli) (UniProt P0A910); assay: AUC; remark: listed apart in the source
Target sequence in this assay (P0A910 22-192): as above

[7] = molecular target: unfolded β-barrel assembly machine A (uBamA) (UniProt P0A940); assay: cross-linking
[8] = molecular target: unfolded outer membrane protein X (uOmpX) (E. coli) (UniProt P0A917); assay: cross-linking
[9] = molecular target: unfolded transmembrane β-barrel of outer membrane protein A (uOmpA171) (E. coli) (UniProt P0A910); assay: cross-linking
[10] = molecular target: N-FkpA (N-terminal domain of FkpA) (E. coli) (UniProt P45523); assay: AUC

Kd [1] [nM] | Kd [2] [nM] | Kd [3] [µM] | stoichiometry N [4] | Kd [5] [nM] | Kd [6] [nM] | crosslinking efficiency [7] [%] | crosslinking efficiency [8] [%] | crosslinking efficiency [9] [%] | stoichiometry N [10] | Substance
700 | 8 | 1.1 | 2 | 2900 | 400 |  |  |  |  | FkpA (full-length, dimeric form) (from UniProt P45523 26-270) (natural protein)
 |  |  |  |  |  | 81.8 | 81 | 83.2 |  | FkpA pAzF variant Y225pAzF (from UniProt P45523 26-270) (natural protein)
 |  | 44 |  |  |  |  |  |  | 2 | N-FkpA (N-terminal domain of FkpA) (from UniProt P45523 26-270) (domain or fragment)
